# Results reported in the DeepSol protein solubility set.
# Assay: soluble on expression in E. coli; label from the status in PepcDB or PDB records
row,Sequence,soluble on expression in E. coli
1,MTICSVNNVTKSFGGNIIFENISLEIKNGERVGLVGRNGSGKTTIFQLLTGMESLDAGAIHMKKGTRIGHVAQIPKFDESMTVYEVLSSAFKIEKELEREMRTLEKDMAEEQESSVLQKLMERYGIIQEKFAFLGGYEIEANIMKVANGLQVTELFPRSFLELSGGEQTKVSLAYMLLQKPDLLLLDEPTNHLDLFAVEWLEQFLKEYNGTVMVISHDRYFLDEVVTKIFDLEDGEIHVYHTNYSRFVEEKEERLLQEFQAYQEQQKKIKKMKEAIKRLREWANQANPPNEGLHKRARSMERALERMQKLKKPILERKQIGLQFEGQDRSGKDVVVIKEVSKGFADHPLFNEVNLHVRFQERAAIVGRNGTGKTTLLKLLLEEIEPDAGEIRIGSSVKIGYLSQHAYGNMKSDVLEAFREYVAVTEGEARHILAKFLFYGPAVFKKVTQLSGGEKMRLRLAQLMYQDINFLILDEPTNHLDIESREVLEEALEQYNGTILAVSHDRYFLNKLFEKTYWIDEHKLFEFAGNYAWARQKWEERLETQVIKQQRQGRKSIETAPVKKKEARNIEEIETELMHVEEDIYTLECTMEHVVDIKRLEQLYEEKTKKELLRAELYNELENIVE,not soluble
2,MSLKISDVVVELFREAAIYLPEDVKNALEEAYKKESSEISKNTLKAIIENNKIAEETQVPLCQDTGVPIVFLKIGKNINSSEIMKIIEEIKEGVKKATEEVPLRPNVVHPLTRENFKTNVGLNSPFINIEFDESLDREIEIIAFPKGAGSENMSALKMLKPSDGIEGIKNFVLETIANAGGKPCPPIVVGIGIGGTADVALKLAKKALLRKIGERHRDKEIANLEKELLEKINSLGIGAMGLGGDITALDVFIEIAGCHTASLPVGICIQCWADRRAIKRIKLDAKEGGSHHHHHH,soluble
3,IPNDILIVNPEAQGLVDGHKVIVKITKYPEGRMSAEGEVISILGHKNDPGMDILSIIYKYGIPQAFPEEVLQQAQNIPDEIDAGEIKNRRDLRDEPLVTIDGADAKDLDDAVHVSRLPNGNFKLGVHIADVSYYVKEKSPIDLEAAERGTSVYLVDRVIPMIPHRLSNGICSLNPQVDRLTLSCEMEITRDGQVVNHEIFQSVIRTNERMTYHDVNKILVEKEEELRNRYELLVPMFEDMEELAAILRKKRFGRGAIDFDFKEAKVLVDEEGKPSDVVIRERGVAEKLIEEFMLAANETVAEHFHWLKLPFMYRIHEDPDSEKLGRFLEFITNFGYVVRGTANTVHPRALQKLLEEVRGEPEEQVISTVMLRSMQQAK,not soluble
4,MSLTTDTTSQTVLRSRKDVPSSDCWDTKSLYASREAWKKDLENLCGKEAPFWPHLNEKQFHIEQPSSLYKLLTEVFSIERTLEKLYVYAHLTHDEDISNQEATADLKSITYLLTSFSEEISWIQPALIALPQKISEELLTSPELQTYHFYLKKIFRLAPHTGTSREEKILASSSPALEVAYKTFSSLTDSEIPFGEAVDSEGKSHPLSHALSSLYMQSPDRELRKSAYQKQCQRYHGYRLSLANLLNGKIQAHLFNAKAHNYKSCLEAALFQNNISTSVVTTLIETVKQHTHLMTKYFQLKQKALGLPDFHFYDVYAPIAASEFARHYSYEEAVSLICDSLTPLGDNYVEALRKGLTSEGWVDKYENQNKRSGAYSSGCYDSKPYILMNYTGTLYDVSVVAHEGGHSMHSFLSHKHQQYHEAQYPIFLAEIASTLNETLLMEFLLKNAPSKEEKIAILSRSLDTIFATLFRQTLFADFELEAHSAAEQGIPLTEEFFSQSYKKLQHIFYGDCVTFDELSSIEWARIPHFYYNFYVYQYATGIIASLCFSEKILSKEAGAQEAYLTFLQSGGSDFPIEILKKSGLDMTSSAPMLKAFSYIERKLDELTNLLEGHHHHHH,soluble
5,MPSASASRKSQEKPREIMDAAEDYAKERYGISSMIQSHEKPDRVLVRVRDLTIQKADEVVWVRARVHTSRAKGKQCFLVLRQQQFNVQALVAVGDHASKQMVKFAANINKESIVDVEGVVRKVNQKIGSCTQQDVELHVQKIYVISLAEPRLPLQLDDAVRPEAEGEEEGRATVNQDTRLDNRVIDLRTSTSQAVFRLQSGICHLFRETLINKGFVEIQTPKIISAASEGGANVFTVSYFKNNAYLAQSPQLYKQMCICADFEKVFSIGPVFRAEDSNTHRHLTEFVGLDIEMAFNYHYHEVMEEIADTMVQIFKGLQERFQTEIQTVNKQFPCEPFKFLEPTLRLEYCEALAMLREAGVEMGDEDDLSTPNEKLLGHLVKEKYDTDFYILDKYPLAVRPFYTMPDPRNPKQSNSYDMFMRGEEILSGAQRIHDPQLLTERALHHGIDLEKIKAYIDSFRFGAPPHAGGGIGLERVTMLFLGLHNVRQTSMFPRDPKRLTP,soluble
6,MIDMFHINIPFKKDVIIEMGDCGFVDFAKLAEKTELKIACGNVEFSVVNDQKKVRTDDLYHPWSTIPSSYTDIACKVFDAEPRANVFWGYLQLKASPAKVMQGHNVYGSEDFRLCVEYLLDSLQKAQPELWELLDVGLAEMTRIDCTYSIKCANPDILRQTIKQMGNVSNRYIKPARNSDFETTLYFNRATKANPGAGRSFELCIYTKHDEIAHQLADLKRRARQGDSDRFNRIIDELSKPELQAFAANRLRFEGRAKKRFIQKHVGSANLWQVIRHAEQFEAKNGYRFCEWMFKTLFHDLLESLKGEELELYNDSKIKQLLRDAYSTMTPKGNISYAKADRLFRFYMTLCDRGYQELKAHSSKATLHRNMRDLMAIGFSKADLQNLSEGERMPLAQVLNFNFDNQRPANYVEPVSPTALEHHHHHH,not soluble
7,MVRTCSNCGSSEIDEDAARGDATCTACGTVLEESIVVTENQFQERAGGSGHTLVGQFVSSERAAANNFNGMGSQESREMTYAKGRKVIDELGSQLRINSHCMNTAFNFYKMCVSRNLTRGRNRSSVVAVCMYITCRLENTAHLLLDFSDVTQINVFDLGRNLNYLSRSLRINLPSTDPCLYIMRFACVLDFGDKQKEVVNLATRLVQRMKRDWMSTGRRPTGICGAALLIAARSLNFNRSINDIVRVVHISEGVIRKRLDEFSQTPSGSLTIDEFSTVDLEHSEDPPAYRESRRKAREDQLRKEAEQAESMKEQLGEMEAHVEAALDKKRKEKFSKSPYARMISENLGKENDKMQTLTETVVESSGLEKGADEMVRNEIINTVFNAAEEDPCTSNSLEKYDKYRPSLESLGIKRTSEPEPEPVPHPIVNADLEEDISDSEIDSYILTESEVAIKTDYWMKANGEAMKEIEEKKRERELNGGVKKKKPRSNRKTDTTSTSVASAVEKVIAEKKLSNKVNYEMLKDLETMATGIKRDIRESTPAPVTPISIKVDSSDVTPDTLSKSEKIARGKNIRSQASESTIQKLRSIFDLTEECSETSKNSSPKVNLKVESASPSTSEVSSIEHKPFVPPARSRYAKVKPIIGAKKLAALNEVKNVHTVPEPSAPAEPIVSEAPLQVKTSSSDPIVTSTEVPSVAEPPAPIQNVEEAKPIVPVKSRYAKAKPNLKPIKQKTAVDVVTVGEGESSEPSAKRTKAEHLES,not soluble
8,MGSDKIHHHHHHMSDPTWDGSPQYRNELLRFMPADDLALLAPHMQRCALPVRMMLVTPNIPIEAVYFIEQGIGSVVASTASGHDAEIGFIGFEGMTGSALVMGDDRAAHACFVQLEGEAIRIDAAPFNAALAASPTLRLFLLHFVNTLHTQTGCTALVNARLKLEERLARWLLMCDDRVPGESLAMTHEFLSIMLGVRRPGVTVALQLLEGRALIRSRRGEIVIRDRAGLLELANGGYGQAEAEYARLIGEIMPG,not soluble
9,MNVTSKPGELVPESDVAAIMRGTHGDPFRVLGMHGGGGAPLSVRVFAPQAAEVAVLGQGGEVLAPLERIGAEGFFAGTVPGEEKFPYRLRFVSGPHEWEADDPYRFPEVLG,not soluble
10,MITSECIIYLARKYQCKFILLGRSAILATEPEWSIGCVDESELKKRIMQHLIEQQEKPTPIKVQNLYKKICQSREIYQTLADIKQGGGEAEYLSIDVTDTSALKSALAPVVARLGRITGIIHGAGNLADKLIEHKTEQDFQTVYNVKIEGLHSLINCVDIAQLKFIALFSSFVSFYGNVGQSDYSLANEILNKYAYLLQRKYPECHVVSFGWGPWDGGMVTPQLKQLFTQKNIKLIPLRVGAEILAEELTQDHTKVPQLIIMSQGISVLPKAFSPEKHSYRLYRRLTLQGNPFVYDHVIGGNAVLPAVCALAWMTNICEQFYPGYHFLSCQKYKVLKGIVFDDNLANLYCLDLTEVEKSEEEIQLEALIWSETPKGIPLYHYRALINISQKSHAQQALTFEDFNYYESSLSLNPYQEGILFHHQRFRGIQKILEITANKLIASCFLPEISPAEQGQFLTQSFNPYTADMFFQCLLIWVRQTYGLGSLPLELTALKQFYTLPFNQEFLINLSIEEQSETKVVASAIAHDIQGKVYLEATNMQVTSSARLNQLFLNNTVASKNTVCMLEHHHHHH,not soluble
11,MGSDKIHHHHHHMEALRRRIETQVMSLTGLALGQLDLESPKGDPGLFGPHSISWRVHGDFPSMLVGGISALMLQLLHPLALAGVWDHSNFREDLLGRLRRTSQFISGTTFGATGDAEWLIDKVRTIHLQVTGTAPDGRPYAASDPDLLTWVHVAEVSRFLAAHLRYRNPRLPRAEQDAYYNEIALIAERLGARDVPRSCQQVEDYLQHIRPQLHCDARSHEVIRILLDAPAPSRLAQPVGKLMLHAGIDLLPGWAQALLGLQHGPLQQRLIRLGLRRTAPVLRWAMRDGSAHRAKRRMGID,not soluble
12,MGHHHHHHSHMTDFEDKQVANNETMEDAMNSVQEVSVGDIVKGEVLAIEDKQVVVGIEGAGVEGVVPAKELSTLPVEDVHELVKVGDVLDLVVITSIGKDKENGSYLLSKRRLDAKKVWEEIEQDFQAGKVIEAPVTNVVKGGLVVDVGVRGFVPASMVEDHFVADFSEYKGQTLAFKIIEIEPSENRLILSHKAVVEAEKESKKEELLSSLHDGDVVEGKVARLTDFGAFIDLGGVDGLVHVSEIAHQHVGKPSDALTVGEDVQVKILSINPEEGRISLSIKETLPGPWTDIETKAAAGTVLDGTVKRLTSFGAFVEVFPGVEGLVHISQISHKHIATPHEVLHEGDQVQVKVLEVNPEEHRIALSIKALEPKPESQEEPKEEQEYELPEENTGFTMGDILGDALSDAKEEE,soluble
13,MPHQSQPGFLLPAIQHHSMQGSLPGERDVTVVGGGFGGLAAAAYLARAGASVTLLEQHDTVGGRAGVLERDGFRFDTGPSWYLMPDVFERFFDHFDHDPHDFYELTRLDPQYRVFWTDGDSATIEPNRRNAHELFESYEEGAGDALATYLDRAATNYDLAMNRVVYPDRTAFRDYASTDMLPLASRLRLFGNMDDYVSRFFDHPKLRQLLEYTLVFLGGAPHNTPALYSIMSHVDLNGNVFYPEGGIAGVVDALAELAVEQGATIETGVGVNAISGRRGEFTLATDDGTRTTDLVVNNANPAYAERELLDTGGRDHAPDYWDDQTYAPSALMFYLGVEGDVEPLAHHSLVLPPDWDGHFAQLFDDPGWPDDPAFYLSVASKTDDTVAPDGHEAVVILLPIAPGLDDTPEIRAQYRDRLLGTLAAQTGVDLRDRIVVEESACVSEFSEQFGDPGGTALGLAHTLFQTGPLRPGKRDGPDGHYYVGAYTNPGIGMPMCLISGEHVTKAVIDDDPAASGSTDPLAVPGEFNFDTPTTAD,not soluble
14,MGSDKIHHHHHHMSETYPILIHLGEKLNRVIVGQSQLIQQLLVGLLSGGHIILEGVPGTGKTLLVKVLARLIQADFHRVQLTPDVLPSDITGTNIFDLNNRNFTLKKGPVFTEVLLADEINRTPPKTQAALLEAMEEMQVTLDGESLPLPDLFWVIATQNPLEFEGTYPLPEAQLDRFLFKLVVDYPDQTAEKQMLLNRQAGFAARRSDINSLQPIATVTDILEARQAVKAVKVSESIIDYLLALVRTSRQYPDLALGASPRAAGAWLQTSQAVAWLEGRDFVTPDDIKAVASPLLRHRLILKPEAMLDGLQIDAVIAAVVNQVAVPR,not soluble
15,MPKVAILIYSVDDIIATLAENEKKGIEIAGGEAEIFQVPDVSYKTEYATEEGKEAAKVAKTNADFSYKILTRETLVEYDYYLFGIPTKFGNFPAEWKSFWDSNTGGLWAKGSLHGKIAGLFVSGAISGKGDTEMCIMNAMSTLVHHGVIYVPLGYKNAYKELTDVEDVNGSCAWGAGCVSGIDGGRPPSLSELRVHQLQGKAFYDRIKDL,not soluble
